{"source": "paper PMC7164391", "about": "(Science (New York, N.Y.), 2020)", "binders": {"B1": {"name": "CR3022 Fab (Fab, V domains shown)", "VH": "QMQLVQSGTEVKKPGESLKISCKGSGYGFITYWIGWVRQMPGKGLEWMGIIYPGDSETRYSPSFQGQVTISADKSINTAYLQWSSLKASDTAIYYCAGGSGISTPMDVWGQGTTVTVSS", "VL": "not shown"}}, "molecular_target": "receptor-binding domain (RBD) of the SARS-CoV spike (S) protein (SARS-CoV, isolate of GenBank ABF65836.1 …, UniProt Q19QX0)", "details": "both partners purified"}
{"binder": "B1", "values": [{"measurement": "Kd", "result": "1 ± 0.1", "unit": "nM"}]}
